# Data from the supplement of paper PMC7125110.
# ± gives the standard error. Variants at the floor of the assay were thinned out.
# B1: glmS ribozyme (parent)
# chain: AUAAAAGCGCCAGAACUACAGAAAUGUAGUUGACGAGGAGGAGGUUUAUCGAAUUUUCGGCGGAUGCCUCCAAA
# What was measured:
# Conditions in all cases: with glucosamine-6-phosphate
# glucosamine-6-phosphate [1] = variants of: B1; assay: self-cleavage kobs at 640 uM GlcN6P; higher = faster cleavage; RNA array
# Outline: (§1)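 Ribozyme variants carrying barcodes were transcribed in situ on sequenced MiSeq chips by E. coli RNA polymerase and tracked at 37 °C with a hybridised Cy3 probe. They were exposed to 40 μM to 10 mM glucosamine-6-phosphate in HEPES/KCl/Mg(OAc)2 buffer. kobs came from exponential decay fits of normalised per-tile medians, and kcat and KM from weighted Michaelis–Menten fits.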
# glucosamine-6-phosphate [2] = variants of: B1; assay: self-cleavage kobs at 2500 uM GlcN6P; higher = faster cleavage; RNA array
# Outline: as §1
# glucosamine-6-phosphate [3] = variants of: B1; assay: self-cleavage kobs at 10000 uM GlcN6P; higher = faster cleavage; RNA array
# Outline: as §1
Variant,self-cleavage kobs at 640 uM GlcN6P (glucosamine-6-phosphate [1]),self-cleavage kobs at 2500 uM GlcN6P (glucosamine-6-phosphate [2]),self-cleavage kobs at 10000 uM GlcN6P (glucosamine-6-phosphate [3])
G35A G41U U54C,< 1e-05 s⁻¹,< 1e-05 s⁻¹,–
G38A G60A,< 1e-05 s⁻¹,< 1e-05 s⁻¹,–
A33C G35A G44U C70U,< 1e-05 s⁻¹,–,–
A33U G35A A39G G44U C61U G62U,< 1e-05 s⁻¹,< 1e-05 s⁻¹,–
A36G A42G U56G,< 1e-05 s⁻¹,–,–
G32U C34U A36G G51A C70G,8.6e-05 ± 3.2e-05 s⁻¹,–,–
G32U G41U G60U C68A,< 1e-05 s⁻¹,–,–
G38A G44A G51U U54G,< 1e-05 s⁻¹,–,–
U31A G66U C70U,0.00031 ± 6.9e-05 s⁻¹,0.000329 ± 6.7e-05 s⁻¹,–
G38U C58U C67U C70U C71A,9.38e-05 ± 3.9e-05 s⁻¹,–,–
G32U U46G C50G,0.000215 ± 4.7e-05 s⁻¹,9.4e-05 ± 3.4e-05 s⁻¹,–
A36C U69A,6.08e-05 ± 1.6e-05 s⁻¹,0.000182 ± 4.6e-05 s⁻¹,–
G35C G41U A64G,< 1e-05 s⁻¹,–,–
G32C A53C G62C,< 1e-05 s⁻¹,< 1e-05 s⁻¹,–
A33U A52G C68G C71G,0.000207 ± 7.3e-05 s⁻¹,9.93e-05 ± 4e-05 s⁻¹,–
G37A A64U C71U,< 1e-05 s⁻¹,< 1e-05 s⁻¹,–
A33C U54G A64C C70G,< 1e-05 s⁻¹,< 1e-05 s⁻¹,–
G32A A36U G62U C70G,0.000218 ± 8.5e-05 s⁻¹,–,–
A36C G43U G60U,< 1e-05 s⁻¹,–,–
U31G C58G C70G,0.000104 ± 3.4e-05 s⁻¹,–,–
G32U A33U C34A A36C,< 1e-05 s⁻¹,< 1e-05 s⁻¹,–
G32U U56A C67A,0.000114 ± 2.4e-05 s⁻¹,0.000294 ± 8.2e-05 s⁻¹,–

Variant,self-cleavage kobs at 640 uM GlcN6P (glucosamine-6-phosphate [1]),self-cleavage kobs at 2500 uM GlcN6P (glucosamine-6-phosphate [2]),self-cleavage kobs at 10000 uM GlcN6P (glucosamine-6-phosphate [3])
A33U C34G G44A G51A,< 1e-05 s⁻¹,< 1e-05 s⁻¹,–
G32A A39C G59A C67A,< 1e-05 s⁻¹,< 1e-05 s⁻¹,–
C34U A42G C58U A64G U65G,< 1e-05 s⁻¹,< 1e-05 s⁻¹,–
U31G U65A,0.000295 ± 0.00011 s⁻¹,–,0.00166 ± 0.00049 s⁻¹
C34A G43U U55G U57G C61A,< 1e-05 s⁻¹,–,–
G40A A48U U56A G59U C68A,< 1e-05 s⁻¹,< 1e-05 s⁻¹,–
U30C U55A G60A C71A,< 1e-05 s⁻¹,–,–
A36G U45A C61U U69G C70A,< 1e-05 s⁻¹,< 1e-05 s⁻¹,–
A36G G38U C68G,9.46e-05 ± 3.2e-05 s⁻¹,–,3.1e-05 ± 1.5e-05 s⁻¹
C34U G40U A53U C58U G60U C61A C68A,< 1e-05 s⁻¹,–,–
C34U G41C A52U G60C U69G,< 1e-05 s⁻¹,–,< 1e-05 s⁻¹
A33U A39C A48U G59U,< 1e-05 s⁻¹,–,–
G32C U56A,3.99e-05 ± 1.8e-05 s⁻¹,2.05e-05 ± 9.8e-06 s⁻¹,5.18e-05 ± 7.3e-06 s⁻¹
A33C C34G A53C U57A G66C,< 1e-05 s⁻¹,–,–
G38C U49A,< 1e-05 s⁻¹,< 1e-05 s⁻¹,< 1e-05 s⁻¹
G38U U47G C68U,0.000119 ± 4e-05 s⁻¹,–,–
A33C G38C U55C C61G C71U,< 1e-05 s⁻¹,< 1e-05 s⁻¹,–
U31A G44A C67U,0.00323 ± 0.0014 s⁻¹,0.00757 ± 0.0024 s⁻¹,0.00871 ± 0.0018 s⁻¹
G38C U46C G59U U65C C67A,< 1e-05 s⁻¹,< 1e-05 s⁻¹,–
G35A G40U G44U U45C A52U,< 1e-05 s⁻¹,–,–
G35U G44C G66U,< 1e-05 s⁻¹,–,–
G35U C61G,< 1e-05 s⁻¹,–,< 1e-05 s⁻¹

Variant,self-cleavage kobs at 640 uM GlcN6P (glucosamine-6-phosphate [1]),self-cleavage kobs at 2500 uM GlcN6P (glucosamine-6-phosphate [2]),self-cleavage kobs at 10000 uM GlcN6P (glucosamine-6-phosphate [3])
U30G G43A C67A,9.35e-05 ± 3e-05 s⁻¹,0.000157 ± 5.9e-05 s⁻¹,–
A36G A53U C68A C71G,8.35e-05 ± 2e-05 s⁻¹,–,–
A33G A53C A64U,< 1e-05 s⁻¹,–,–
A39G A48U U54G,8.65e-05 ± 1.9e-05 s⁻¹,0.000287 ± 7.3e-05 s⁻¹,–
U30C G59C G63U,< 1e-05 s⁻¹,–,–
U31A G32C G60A G66A,< 1e-05 s⁻¹,–,–
A33U G41C G51U U55A,< 1e-05 s⁻¹,–,< 1e-05 s⁻¹
U31G G51A,< 1e-05 s⁻¹,–,–
A39G C50G C67U,0.000571 ± 0.00018 s⁻¹,0.000299 ± 0.00012 s⁻¹,–
A33C C50A C68A,< 1e-05 s⁻¹,< 1e-05 s⁻¹,–
G32C G35A A36G,< 1e-05 s⁻¹,–,–
G35C G38U,< 1e-05 s⁻¹,< 1e-05 s⁻¹,–
G35A G59A G62U,< 1e-05 s⁻¹,–,–
G38C C50G C67G,6.94e-05 ± 1.3e-05 s⁻¹,0.000141 ± 4.2e-05 s⁻¹,–
C34A G38U A53G,< 1e-05 s⁻¹,–,–
U30G U31C A39U,0.000202 ± 6.1e-05 s⁻¹,–,0.00122 ± 0.00026 s⁻¹
G38C U57G,< 1e-05 s⁻¹,–,–
A39U A48G G60C,< 1e-05 s⁻¹,< 1e-05 s⁻¹,–
U30G A33G U57C,< 1e-05 s⁻¹,< 1e-05 s⁻¹,< 1e-05 s⁻¹
C34G G35A G63U,< 1e-05 s⁻¹,–,< 1e-05 s⁻¹
G35A A39C U47C U56G,< 1e-05 s⁻¹,–,–
G32A U69A C70G,4.23e-05 ± 1.9e-05 s⁻¹,–,–

Variant,self-cleavage kobs at 640 uM GlcN6P (glucosamine-6-phosphate [1]),self-cleavage kobs at 2500 uM GlcN6P (glucosamine-6-phosphate [2]),self-cleavage kobs at 10000 uM GlcN6P (glucosamine-6-phosphate [3])
A36G A39G G40U,< 1e-05 s⁻¹,< 1e-05 s⁻¹,< 1e-05 s⁻¹
U31G C50A U56G U69G,0.000115 ± 3.6e-05 s⁻¹,7.11e-05 ± 1.8e-05 s⁻¹,–
A36G U49A G63U,< 1e-05 s⁻¹,–,–
A39G G41A U49C,< 1e-05 s⁻¹,–,–
G38C A42U G63A C68U,< 1e-05 s⁻¹,–,–
C34U A36G G62A U69G,0.00111 ± 0.00031 s⁻¹,0.000939 ± 0.00035 s⁻¹,–
U31C C34A G59U,< 1e-05 s⁻¹,< 1e-05 s⁻¹,–
A36C G40C,< 1e-05 s⁻¹,< 1e-05 s⁻¹,< 1e-05 s⁻¹
C34A G41C C70U,< 1e-05 s⁻¹,–,–
A36C G38C G60C U65A,< 1e-05 s⁻¹,–,–
G38U U69A,0.000186 ± 9e-05 s⁻¹,–,–
U31A U69C C71G,8.22e-05 ± 1.8e-05 s⁻¹,6.01e-05 ± 1.7e-05 s⁻¹,3.9e-05 ± 1.6e-05 s⁻¹
A33U G41C A52C A53U A64G U65G C70G,< 1e-05 s⁻¹,–,–
G35U A39G G59U,< 1e-05 s⁻¹,–,–
A33G C34U A42G G51U C58U G59C,< 1e-05 s⁻¹,< 1e-05 s⁻¹,–
G32A G37C A42C,< 1e-05 s⁻¹,–,–
G38U A42G A53U,< 1e-05 s⁻¹,–,–
G35A G37A U57A C68A,0.000784 ± 0.00036 s⁻¹,–,–
A39U A48U A53C,< 1e-05 s⁻¹,–,–
G32C G51C,< 1e-05 s⁻¹,< 1e-05 s⁻¹,–
A36U G43U,< 1e-05 s⁻¹,< 1e-05 s⁻¹,–
G35C A42C C50U G51U,< 1e-05 s⁻¹,–,–

Variant,self-cleavage kobs at 640 uM GlcN6P (glucosamine-6-phosphate [1]),self-cleavage kobs at 2500 uM GlcN6P (glucosamine-6-phosphate [2]),self-cleavage kobs at 10000 uM GlcN6P (glucosamine-6-phosphate [3])
G32C G51U C70A,0.000153 ± 5.2e-05 s⁻¹,–,7.14e-05 ± 3e-05 s⁻¹
G32A C50G,6.29e-05 ± 2.1e-05 s⁻¹,–,2.9e-05 ± 1.4e-05 s⁻¹
A33C C50U G60U,< 1e-05 s⁻¹,–,–
G35A G40U G43U G59A C67G,< 1e-05 s⁻¹,< 1e-05 s⁻¹,–
G35U C58A A64U,< 1e-05 s⁻¹,< 1e-05 s⁻¹,–
A39U G43C C70G,< 1e-05 s⁻¹,< 1e-05 s⁻¹,–
G38A A42C A64G,< 1e-05 s⁻¹,< 1e-05 s⁻¹,–
U31C G37A C70G,< 1e-05 s⁻¹,–,–
G35C G37C A39C G63C,< 1e-05 s⁻¹,< 1e-05 s⁻¹,–
C34U A36U G41C A53G,< 1e-05 s⁻¹,–,–
U30C U49G U55C,< 1e-05 s⁻¹,–,–
A33U U46C G63A,< 1e-05 s⁻¹,< 1e-05 s⁻¹,–
G32A G37U A48C G66C,< 1e-05 s⁻¹,–,–
C34A A39C G41A G66U,< 1e-05 s⁻¹,< 1e-05 s⁻¹,–
G37A A42C C61A,< 1e-05 s⁻¹,–,–
G32C G44U A64C,< 1e-05 s⁻¹,–,< 1e-05 s⁻¹
G32A G35C A39G,< 1e-05 s⁻¹,< 1e-05 s⁻¹,–
A36C U57C C67U,< 1e-05 s⁻¹,< 1e-05 s⁻¹,–
G37U G41A G63U A64G,< 1e-05 s⁻¹,–,–
U30C G41C C71U,< 1e-05 s⁻¹,–,–
U31C A36C U45G U65G C71U,< 1e-05 s⁻¹,< 1e-05 s⁻¹,–
C34U A39C A53U,< 1e-05 s⁻¹,< 1e-05 s⁻¹,–

Variant,self-cleavage kobs at 640 uM GlcN6P (glucosamine-6-phosphate [1]),self-cleavage kobs at 2500 uM GlcN6P (glucosamine-6-phosphate [2]),self-cleavage kobs at 10000 uM GlcN6P (glucosamine-6-phosphate [3])
U31C A42C A64G C67G,< 1e-05 s⁻¹,–,–
C34A G43U U55C,< 1e-05 s⁻¹,< 1e-05 s⁻¹,–
G35U G63U U65A,< 1e-05 s⁻¹,< 1e-05 s⁻¹,–
A36G A39C A64U C71G,< 1e-05 s⁻¹,< 1e-05 s⁻¹,–
U31A A33U U55A C58G,< 1e-05 s⁻¹,< 1e-05 s⁻¹,–
G32U A39G,0.0002 ± 3.6e-05 s⁻¹,0.000485 ± 0.00015 s⁻¹,–
U31G G44A U46A G62C,< 1e-05 s⁻¹,< 1e-05 s⁻¹,–
A33C U45C U56G G62A U65C,< 1e-05 s⁻¹,–,–
G35U A39C C71U,< 1e-05 s⁻¹,< 1e-05 s⁻¹,–
U30G C61U C71G,< 1e-05 s⁻¹,–,–
G32A A53G U56G,7.56e-05 ± 2.8e-05 s⁻¹,0.000272 ± 8.6e-05 s⁻¹,–
A39C U46A U56G,4.61e-05 ± 1.8e-05 s⁻¹,–,–
G35A G43C C68A,< 1e-05 s⁻¹,< 1e-05 s⁻¹,–
A36U G44A G62A C71G,< 1e-05 s⁻¹,< 1e-05 s⁻¹,–
C34G U45C G59U G62A G66A,< 1e-05 s⁻¹,–,–
G32U A52C C61U,< 1e-05 s⁻¹,–,–
G37C G40A C50G,< 1e-05 s⁻¹,< 1e-05 s⁻¹,–
G38C G43C C68U,< 1e-05 s⁻¹,–,–
A33U G37A G59A,< 1e-05 s⁻¹,–,–
C34G G37U A39G C58U C61G,0.00305 ± 0.001 s⁻¹,–,–
A39U C50G A52U G59U C67G,< 1e-05 s⁻¹,–,< 1e-05 s⁻¹
G35U C67G C68G,6.14e-05 ± 2.2e-05 s⁻¹,–,–
